Experimental data from the supplement of paper PMC10567573.

B1: TSN (parent)
chain: FLAAEQDIREEIRKVVQSLEQTAR

Variants of: B1
Assay: protein stability index of a GFP-peptide fusion (GPS, HEK-293T) (PSI 1-6); higher = more stable
Conditions: c terminus: a fixed tail appended
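Also: lentivirally expressed fusions sorted by FACS into six bins by GFP to DsRed ratio, PSI derived from sequencing read proportions per bin multiplied by bin number.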

Row | Variant | protein stability index
1 | FLAAEQDIREEIPKVVQSLEQTAR | 3.64
2 | FLAAEQDIREEIGKVVQSLEQTAR | 1.94
3 | FLAAEQDIREEIAKVVQSLEQTAR | 1.94
4 | FLAAEQDIREEINKVVQSLEQTAR | 2.16
5 | FLAAEQDIREEIEKVVQSLEQTAR | 1.89
6 | FLAAEQDIREEILKVVQSLEQTAR | 1.83
7 | FLAAEQDIREEISKVVQSLEQTAR | 2.12
8 | FLAAEQDIREEIDKVVQSLEQTAR | 1.84
9 | FLAAEQDIREEIFKVVQSLEQTAR | 1.55
10 | FLAAEQDIREEIYKVVQSLEQTAR | 2.73
11 | FLAAEQDIREEITKVVQSLEQTAR | 2.82
12 | FLAAEQDIREEIIKVVQSLEQTAR | 1.43
13 | FLAAEQDIREEIVKVVQSLEQTAR | 1.66
14 | FLAAEQDIREEIMKVVQSLEQTAR | 2.07
15 | FLAAEQDIREEIHKVVQSLEQTAR | 2.7
16 | FLAAEQDIREEIQKVVQSLEQTAR | 2.14
17 | FLAAEQDIREEIWKVVQSLEQTAR | 2.18
18 | FLAAEQDIREEIKKVVQSLEQTAR | 1.89
19 | FLAAEQDIREEICKVVQSLEQTAR | 1.94
20 | FLAAECDIREEIRKVVQSLEQTAR | 1.65
21 | FLAAEADIREEIRKVVQSLEQTAR | 2.01
22 | FLAAEHDIREEIRKVVQSLEQTAR | 1.63
23 | FLAAENDIREEIRKVVQSLEQTAR | 1.91
24 | FLAAELDIREEIRKVVQSLEQTAR | 1.99

Row | Variant | protein stability index
25 | FLAAEMDIREEIRKVVQSLEQTAR | 1.86
26 | FLAAEEDIREEIRKVVQSLEQTAR | 2.85
27 | FLAAEIDIREEIRKVVQSLEQTAR | 2.1
28 | FLAAESDIREEIRKVVQSLEQTAR | 2.25
29 | FLAAEDDIREEIRKVVQSLEQTAR | 1.85
30 | FLAAEYDIREEIRKVVQSLEQTAR | 2.09
31 | FLAAEVDIREEIRKVVQSLEQTAR | 1.79
32 | FLAAEKDIREEIRKVVQSLEQTAR | 1.78
33 | FLAAEFDIREEIRKVVQSLEQTAR | 1.87
34 | FLAAERDIREEIRKVVQSLEQTAR | 2.53
35 | FLAAETDIREEIRKVVQSLEQTAR | 1.46
36 | FLAAEGDIREEIRKVVQSLEQTAR | 1.84
37 | FLAAEPDIREEIRKVVQSLEQTAR | 2.85
38 | FLAAEWDIREEIRKVVQSLEQTAR | 2.75
39 | FLAAEQDIRAEIRKVVQSLEQTAR | 2.11
40 | FLAAEQDIRDEIRKVVQSLEQTAR | 1.63
41 | FLAAEQDIRYEIRKVVQSLEQTAR | 1.96
42 | FLAAEQDIRPEIRKVVQSLEQTAR | 3.21
43 | FLAAEQDIRHEIRKVVQSLEQTAR | 2.5
44 | FLAAEQDIRREIRKVVQSLEQTAR | 2.06
45 | FLAAEQDIRGEIRKVVQSLEQTAR | 2.92
46 | FLAAEQDIRMEIRKVVQSLEQTAR | 1.88
47 | FLAAEQDIRVEIRKVVQSLEQTAR | 2.39
48 | FLAAEQDIRWEIRKVVQSLEQTAR | 2.08

Row | Variant | protein stability index
49 | FLAAEQDIRKEIRKVVQSLEQTAR | 2.15
50 | FLAAEQDIRFEIRKVVQSLEQTAR | 1.35
51 | FLAAEQDIRCEIRKVVQSLEQTAR | 2.47
52 | FLAAEQDIRNEIRKVVQSLEQTAR | 2.12
53 | FLAAEQDIRSEIRKVVQSLEQTAR | 2.33
54 | FLAAEQDIRLEIRKVVQSLEQTAR | 1.96
55 | FLAAEQDIRTEIRKVVQSLEQTAR | 2.83
56 | FLAAEQDIRQEIRKVVQSLEQTAR | 1.85
57 | FLAAEQDIRIEIRKVVQSLEQTAR | 1.53
58 | FLAAEQDIMEEIRKVVQSLEQTAR | 2.11
59 | FLAAEQDISEEIRKVVQSLEQTAR | 2.26
60 | FLAAEQDIWEEIRKVVQSLEQTAR | 1.64
61 | FLAAEQDIIEEIRKVVQSLEQTAR | 1.84
62 | FLAAEQDIGEEIRKVVQSLEQTAR | 3.12
63 | FLAAEQDIPEEIRKVVQSLEQTAR | 3.1
64 | FLAAEQDIEEEIRKVVQSLEQTAR | 1.69
65 | FLAAEQDIVEEIRKVVQSLEQTAR | 1.75
66 | FLAAEQDINEEIRKVVQSLEQTAR | 2.28
67 | FLAAEQDIKEEIRKVVQSLEQTAR | 2.69
68 | FLAAEQDIHEEIRKVVQSLEQTAR | 1.49
69 | FLAAEQDIQEEIRKVVQSLEQTAR | 2.04
70 | FLAAEQDIFEEIRKVVQSLEQTAR | 2.4
71 | FLAAEQDIDEEIRKVVQSLEQTAR | 2.31
72 | FLAAEQDITEEIRKVVQSLEQTAR | 2.06

Row | Variant | protein stability index
73 | FLAAEQDIYEEIRKVVQSLEQTAR | 2.29
74 | FLAAEQDILEEIRKVVQSLEQTAR | 2.26
75 | FLAAEQDICEEIRKVVQSLEQTAR | 1.43
76 | FLAAEQDIAEEIRKVVQSLEQTAR | 1.48
77 | FLAAEQLIREEIRKVVQSLEQTAR | 3.27
78 | FLAAEQHIREEIRKVVQSLEQTAR | 2.78
79 | FLAAEQAIREEIRKVVQSLEQTAR | 2.18
80 | FLAAEQMIREEIRKVVQSLEQTAR | 1.73
81 | FLAAEQSIREEIRKVVQSLEQTAR | 1.79
82 | FLAAEQGIREEIRKVVQSLEQTAR | 2.22
83 | FLAAEQYIREEIRKVVQSLEQTAR | 2.44
84 | FLAAEQRIREEIRKVVQSLEQTAR | 2.35
85 | FLAAEQNIREEIRKVVQSLEQTAR | 2.05
86 | FLAAEQCIREEIRKVVQSLEQTAR | 2.28
87 | FLAAEQQIREEIRKVVQSLEQTAR | 1.3
88 | FLAAEQPIREEIRKVVQSLEQTAR | 2.22
89 | FLAAEQWIREEIRKVVQSLEQTAR | 2.21
90 | FLAAEQTIREEIRKVVQSLEQTAR | 1.75
91 | FLAAEQVIREEIRKVVQSLEQTAR | 2.13
92 | FLAAEQEIREEIRKVVQSLEQTAR | 1.89
93 | FLAAEQIIREEIRKVVQSLEQTAR | 2.93
94 | FLAAEQFIREEIRKVVQSLEQTAR | 2.52
95 | FLAAEQKIREEIRKVVQSLEQTAR | 1.51
96 | FLAAEQDIREEYRKVVQSLEQTAR | 3.2

Row | Variant | protein stability index
97 | FLAAEQDIREESRKVVQSLEQTAR | 2.59
98 | FLAAEQDIREECRKVVQSLEQTAR | 1.58
99 | FLAAEQDIREEWRKVVQSLEQTAR | 2.89
100 | FLAAEQDIREETRKVVQSLEQTAR | 3.07
101 | FLAAEQDIREEKRKVVQSLEQTAR | 3.98
102 | FLAAEQDIREEMRKVVQSLEQTAR | 1.94
103 | FLAAEQDIREEHRKVVQSLEQTAR | 4.29
104 | FLAAEQDIREEPRKVVQSLEQTAR | 4.45
105 | FLAAEQDIREEFRKVVQSLEQTAR | 2.89
106 | FLAAEQDIREENRKVVQSLEQTAR | 4.68
107 | FLAAEQDIREEERKVVQSLEQTAR | 4.52
108 | FLAAEQDIREEQRKVVQSLEQTAR | 4.06
109 | FLAAEQDIREERRKVVQSLEQTAR | 4.3
110 | FLAAEQDIREELRKVVQSLEQTAR | 2.63
111 | FLAAEQDIREEGRKVVQSLEQTAR | 3.81
112 | FLAAEQDIREEARKVVQSLEQTAR | 2.32
113 | FLAAEQDIREEDRKVVQSLEQTAR | 4.64
114 | FLAAEQDIREEVRKVVQSLEQTAR | 2.1
115 | FLAAEQDIREWIRKVVQSLEQTAR | 1.59
116 | FLAAEQDIREGIRKVVQSLEQTAR | 2.68
117 | FLAAEQDIREAIRKVVQSLEQTAR | 2.02
118 | FLAAEQDIREVIRKVVQSLEQTAR | 1.95
119 | FLAAEQDIRELIRKVVQSLEQTAR | 2.19
120 | FLAAEQDIRERIRKVVQSLEQTAR | 2.89

Row | Variant | protein stability index
121 | FLAAEQDIRENIRKVVQSLEQTAR | 3.58
122 | FLAAEQDIREKIRKVVQSLEQTAR | 2.65
123 | FLAAEQDIREPIRKVVQSLEQTAR | 3.15
124 | FLAAEQDIREHIRKVVQSLEQTAR | 2.58
125 | FLAAEQDIREDIRKVVQSLEQTAR | 2.77
126 | FLAAEQDIREYIRKVVQSLEQTAR | 1.76
127 | FLAAEQDIREMIRKVVQSLEQTAR | 1.9
128 | FLAAEQDIREQIRKVVQSLEQTAR | 2.29
129 | FLAAEQDIRETIRKVVQSLEQTAR | 2.43
130 | FLAAEQDIREFIRKVVQSLEQTAR | 1.59
131 | FLAAEQDIREIIRKVVQSLEQTAR | 1.72
132 | FLAAEQDIRECIRKVVQSLEQTAR | 2.21
133 | FLAAEQDIRESIRKVVQSLEQTAR | 2.47
134 | FLAAMQDIREEIRKVVQSLEQTAR | 2.79
135 | FLAALQDIREEIRKVVQSLEQTAR | 3.1
136 | FLAAQQDIREEIRKVVQSLEQTAR | 2.71
137 | FLAAIQDIREEIRKVVQSLEQTAR | 2.81
138 | FLAACQDIREEIRKVVQSLEQTAR | 2.25
139 | FLAATQDIREEIRKVVQSLEQTAR | 3.32
140 | FLAAAQDIREEIRKVVQSLEQTAR | 2.69
141 | FLAADQDIREEIRKVVQSLEQTAR | 2.27
142 | FLAAFQDIREEIRKVVQSLEQTAR | 2.5
143 | FLAAHQDIREEIRKVVQSLEQTAR | 2.26
144 | FLAAVQDIREEIRKVVQSLEQTAR | 3.62

Row | Variant | protein stability index
145 | FLAAGQDIREEIRKVVQSLEQTAR | 2.87
146 | FLAAYQDIREEIRKVVQSLEQTAR | 1.76
147 | FLAAWQDIREEIRKVVQSLEQTAR | 2.58
148 | FLAARQDIREEIRKVVQSLEQTAR | 2.66
149 | FLAANQDIREEIRKVVQSLEQTAR | 3.04
150 | FLAAPQDIREEIRKVVQSLEQTAR | 3
151 | FLAASQDIREEIRKVVQSLEQTAR | 2.52
152 | FLADEQDIREEIRKVVQSLEQTAR | 2.11
153 | FLAFEQDIREEIRKVVQSLEQTAR | 2.71
154 | FLAYEQDIREEIRKVVQSLEQTAR | 2.03
155 | FLALEQDIREEIRKVVQSLEQTAR | 2.29
156 | FLANEQDIREEIRKVVQSLEQTAR | 1.52
157 | FLAPEQDIREEIRKVVQSLEQTAR | 2.01
158 | FLAQEQDIREEIRKVVQSLEQTAR | 2.09
159 | FLAIEQDIREEIRKVVQSLEQTAR | 2.08
160 | FLAGEQDIREEIRKVVQSLEQTAR | 2.04
161 | FLAMEQDIREEIRKVVQSLEQTAR | 1.69
162 | FLAKEQDIREEIRKVVQSLEQTAR | 1.71
163 | FLATEQDIREEIRKVVQSLEQTAR | 2.13
164 | FLAEEQDIREEIRKVVQSLEQTAR | 2.51
165 | FLAVEQDIREEIRKVVQSLEQTAR | 1.93
166 | FLAREQDIREEIRKVVQSLEQTAR | 1.73
167 | FLAHEQDIREEIRKVVQSLEQTAR | 1.57
168 | FLASEQDIREEIRKVVQSLEQTAR | 2.54

Row | Variant | protein stability index
169 | FLYAEQDIREEIRKVVQSLEQTAR | 2.03
170 | FLAAEQDYREEIRKVVQSLEQTAR | 2.42
171 | FLAAEQDMREEIRKVVQSLEQTAR | 1.73
172 | FLAAEQDSREEIRKVVQSLEQTAR | 3.33
173 | FLAAEQDCREEIRKVVQSLEQTAR | 2.56
174 | FLAAEQDQREEIRKVVQSLEQTAR | 3.16
175 | FLAAEQDTREEIRKVVQSLEQTAR | 2.78
176 | FLAAEQDRREEIRKVVQSLEQTAR | 3.15
177 | FLAAEQDLREEIRKVVQSLEQTAR | 2.02
178 | FLAAEQDWREEIRKVVQSLEQTAR | 2.65
179 | FLAAEQDVREEIRKVVQSLEQTAR | 2.17
180 | FLAAEQDKREEIRKVVQSLEQTAR | 2.56
181 | FLAAEQDEREEIRKVVQSLEQTAR | 3.64
182 | FLAAEQDAREEIRKVVQSLEQTAR | 3.02
183 | FLAAEQDDREEIRKVVQSLEQTAR | 3.44
184 | FLAAEQDPREEIRKVVQSLEQTAR | 3.41
185 | FLAAEQDHREEIRKVVQSLEQTAR | 3.17
186 | FLAAEQDFREEIRKVVQSLEQTAR | 2.57
187 | FLAAEQDGREEIRKVVQSLEQTAR | 4.12
188 | FLAAEQDNREEIRKVVQSLEQTAR | 4.12
